This series in a line: soluble on expression in E. coli; label from the status in PepcDB or PDB records.
As to “MKSRTRWLTSEELVTLFEAMRQAPGFSVENGLSIKLLLLLAVRKGELIGARWSEFDLDKAVWYLPAERTKTESAIDIPLPPIAVEWLRELQRLAGVSKWVLPARKMQDRMIPHIAESTLSVALAKIKHGLEPFTIHDLRRTARTHFEALGVAPHIAERCLNHKIKGIEGIYNRHDYFEERKAALEAWAGLLLQIERGEADKVVPIRRAVATKQLEHHHHHH”, the “soluble on expression in E. coli” value is given as “not soluble”.
With “MVAASEGNVVIEVDMANGWRGNASGSTSHSGITYSADGVTFAALGDGVGAVFDIARPTTLEDAVIAMVVNVSAEFKASEANLQIFAQLKEDWSKGEWDCLAASSELTADTDLTLTCTIDEDDDKFNQTARDVQVGIQAKGTPAGTITIKSVTITLAQEAYSANVDHLRDLAPSDFPIGVAVSNTDSATYNLLTNSREQAVVKKHFNHLTAGNIMKMSYMQPTEGNFNFTNADAFVDWATENNMTVHGHALVWHSDYQVPNFMKNWAGSAEDFLAALDTHITTIVDHYEAKGNLVSWDVVNAAIDDNSPANFRTTDSAFYVKSGNSSVYIERAFQTARAADPAVILYYNDYNIEQNNAKTTKMVDMVKDFQARSIPIDGVGFQMHVCMNYPSIANISAAMKKVVDLGLLVKITELDVAVNQPHCDAYPANKINPLTEAAQLAQKKRYCDVVKAYLDTVPVNQRGGISVWGTTDANTWLDGLYREQFEDEKISWPLLFDNNYNDKPALRGFADALIGTQCTNTHELHHHHHH”, the “soluble on expression in E. coli” value is given as “soluble”.
Take “METCFANLDEQTKEKAKSILEQKKSGKLTHEQAKEELTKLGVKLPEKEKHEDIFAGLDEATKTKAKAILDNEKKQLEALNVDLPHHKFFMKKEDK”: the “soluble on expression in E. coli” value was “not soluble”.
On to “MGSDKIHHHHHHMKWSEYANLAQQSLEKFYLADTKEQFLNNFYPTENPEEDNKVFNYWWLAHLVEVRLDAYLRTKKQADLEVAEKTYLHNKNRNGGTLIHDFYDDMLWNALAAYRLYKATGKSIYLEDAQLVWQDLVDTGWNDIMGGGFAWRRPQMYYKNTPVNAPFIILSCWLYNELNETKYLEWAMKTYEWQTKVLVREDGFVEDGINRLEDGTIDYEWKFTYNQGVYIGANLELYRITKEAKYLDTANKTAAISLKELTEDGIFKDEGNGGDEGLFKGIFYRYFTDLIEETANKTYRDFVLNSCQILVENAKLDGYLLMGMNWKEKPSGKIPYSAELSGMIALEMAAKLE”, for which the “soluble on expression in E. coli” value is “not soluble”.
“SLKEPRWRDPELPEVLAMLRHPVDPVKANAAAYLQHLCFENEGVKRRVRQLRGLPLLVALLDHPRAEVRRRACGALRNLSYGRDTDNKAAIRDCGGVPALVRLLRAARDNEVRELVTGTLWNLSSYEPLKMVIIDHGLQTLTHEVIVPHSGWEREPNEDSKPRDAEWTTVFKNTSGCLRNVSSDGAEARRRLRECEGLVDALLHALQSAVGRKDTDNKSVENCVCIMRNLSYHVHKEVPGADRYQEAEPGPLGSAVGSQRRRRDDASCFGGKKAKEEWFHQGKKDGEMDRNFDTLDLPKRTEAAKGFELLYQPEVVRLYLSLLTESRNFNTLEAAAGALQNLSAGNWMWATYIRATVRKERGLPVLVELLQSETDKVVRAVAIALRNLSLDRRNKDLIGSYAMAELVRNVRNAQAPPRPGACLEEDTVVAVLNTIHEIVSDSLDNARSLLQARGVPALVALVASSQSVREAKAASHVLQTVWSYKELRGTLQKDGWTKARFQSAAATAKGPK”: the “soluble on expression in E. coli” value is on record as “soluble”.
For “MTFGEKLLNAASTRGRLCVGIDPHESLLTSWGLPVNVDGLAEFSRACVEAFADTVALVKPQVAFYERFGSAGFAILEETIQTLRERGCLVVSDAKRGDIGSTMAGYASAWLDPASPLSSDAVTVSPYLGFHSLDPVFELAEQHGRGVFVLAATSNPEARELQDQQNADGVSISQQIVDQAAALNAPYMAQGKAGNIGVVIGATLSKPPRLSTLGGAILMPGVGAQGGTASDVDEIAGDMAHLAFPNVSRSILATGPDIAEMKNSVAKNAADFPGFPRS”, the “soluble on expression in E. coli” value is listed as “soluble”.
Regarding “MLFVLILSHRAASYGAIMAALPYMQLYIADYLADTMHLSAEEHGAYLLLMFNYWQTGKPIPKNRLAKIARLTNERWADVEPSLQEFFCDNGEEWVHLRIEEDLASVREKLTKKSAAGKASVQARRSRKEADVQTKQERNLTGVQTDVEVVFEHDVNTKATNKDTDKDLKTDPPLNPPRGNRGVKKFDPLDITLPNWISVSLWREWVEFRQALRKPIRTEQGANGAIRELEKFRQQGFSPEQVIRHSIANEYQGLFAPKGVRPETLLRQVNTVSLPDSAIPPGFRG”, the “soluble on expression in E. coli” value is “not soluble”.
Then “MSLQNPFVPQLVYIEPRALEYPLGQELQDKFENMGIEIRETTSHNQVRNIPGKNHLQQYRNAKSTLVIGVRKTLKFDSSKPSAEYAIPFATGCMGHCHYCYLQTTMGSKPYIRTYVNVEEILDQADKYMKERAPEFTRFEASCTSDIVGIDHLTHTLKRAIEHFGQSDLGKLRFVTKFHHVDHLLDAKHNGKTRFRFSINADYVIKNFEPGTSPLDKRIEAAVKVAKAGYPLGFIVAPIYIHEGWEEGYRHLFEKLDAALPQDVRHDITFELIQHRFTKPAKRVIEKNYPKTKLELDEEKRRYKWGRYGIGKYIYQKDEEHALREALESYIDTFFPNAKIEYFTEGHHHHHH”, with “soluble”; and “MSIMDVQHVAQFYQQLDKSQLHRLIEIYHPDVVFEDAAHRIEGFDALYQYFLNLYQNVHTCTFTIHEQYAVNEGAFLVWTMHLRHPKLAKGEQVDVKGVSHLHFAEGKVTYHRDYFDMGEMLYEQLPVLGQVIRAIKRRLGQ”, with “not soluble”.
Take “MGSDKIHHHHHHMVLMPSPETIFIESGPLSARFRSDWGGRMTHLVHAEMGDILAPTQADVFEPYNWPRAGAYPLVPYHNRVYGASFVESGKTHRLLPHPALTPDAMHGPAHRRPWHVASAAEDRVTLQLNYEADDEWPFSFVAEQHFRLEPDRLIVELSIINSSDASAPVSLGWHPYLAVPLSSHAETDARLEYPLDALNVPTGNEAHPRSSRSIPAATGYTLHFRYWSTATVELDKGTLLLEADPIFEYLAVHRMEKYLCLEPVSMAAGALCLPETERESRGLRTILPEGRLSGRISLSIRG”: the “soluble on expression in E. coli” value is recorded as “not soluble”.
In the case of “MESKRLDNAALAAGISPNYINAHGKPQSISAETKRRLLDAMHQRTATKVAVTPVPNVMVYTSGKKMPMVVEGSGEYSWQLTTEEGTQYKGHVTGGKAFNLPTKLPEGYHTLTLTQDDQRAHCRVIVAPKRCYEPQALLNKQKLWGACVQLYTLRSEKNWGIGDFGDLKAMLVDVAKRGGSFIGLNPIHALYPANPESASPYSPSSRRWLNVIYIDVNAVEDFHLSEEAQAWWQLPTTQQTLQQARDADWVDYSTVTALKMTALRMAWKGFAQRDDEQMAAFRQFVAEQGDSLFWQAAFDALHAQQVKEDEMRWGWPAWPEMYKNVDSPEVRQFCEEHRDDVDFYLWLQWLAYSQFAACWEISQGYEMPIGLYRDLAVGVAEGGAETWCDRELYCLKASVGAPPDILGPLGQNWGLPPMDPHIITARAYEPFIELLRANMQNCGALRIDHVMSMLRLWWIPYGETADQGAYVHYPVDDLLSILALESKRHRCMVIGEDLGTVPVEIVGKLRSSGVYSYKVLYFENDHEKTFRAPKAYPEQSMAVAATHDLPTLRGYWESGDLTLGKTLGLYPDEVVLRGLYQDRELAKQGLLDALHKYGCLPKRAGHKASLMSMTPTLNRGLQRYIADSNSALLGLQPEDWLDMAEPVNIPGTSYQYKNWRRKLSATLESMFADDGVNKLLKDLDRRRRAAAKKK”, the “soluble on expression in E. coli” value was “not soluble”.
Then “MSLHKEYIQNYLNLTRNTGNLMLFAGDQKIEHLNEDFYGKDISKDDADPEHLFKIAENSKIGGFAVQFGLLSRYGRDHKDINYIVKLNSKTNLVDTNQKDPLSRALLDINDILEFKKNSGINIVGVGYTIYLGSEYESEMLSEASKIIYEAHKGGLVVILWIYPRGKAVKDEKDSELISGATGVAACLGADFVKVNYPKSENPAESFKEAVMAAGRTKVVCAGGSSTDIESFLKQLYEQIHISGASGNATGRNIHQKSLSDAVSMCNAIYAITIDGKTVSEALNIYNERKSEGHHHHHH”, with “not soluble”; and “SAAATEHNRPSSGDRNLERRCSPNLSREVLYEIFRSLHTLVGQLDLRDDVVKITIDWNKLQSLSAFQPALLFSALEQHILYLQPFLAKLQSPIKEENTTAVEEIGRTEMGNKNEVNDKFSIGDLQEEEKHKESDLRDVKKTQIHFDPEVVQIKAGKAEIDRRISAFIERKQAEINENNVREFCNVIDCNQENSCARTDAIFTPYPGFKSHVKVSRVVYTYGPQTRPEGIPGSGHKPNSMLRDCGNQAVEERLQNIEAHLRLQTGGPVPRDIYQRIKKLEDKILELEGISPEYFQSVSFSGKRRKVQPPQQNYSLAELDEKISALKQALLRKSREAESMATHHLP”, with “not soluble”.

Values taken from the DeepSol protein solubility set.
